Variants at the floor of the assay were thinned out.
What was measured:
biotinyl-Met-oxazolone = assay: self-aminoacylation, catalytic enhancement (BMO) (fold over background); higher = more active; k-Seq, kA / k0A0; sequences stand for … in GGGAAUGGAUCCACAUCUACGAAUUC…UUCACUGCAGACUUGACGAAGCUG
Procedure, shortened: (§1)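 Working in 50 μL HEPES/NaCl/KCl/MgCl2/CaCl2 buffer with 5% acetonitrile at pH 6.9–7.0, mutagenized RNA pools (0.43 μM; 21-nt variable region) were reacted with 2–1250 μM of each biotinyl-aminoacyl-oxazolone for 90 minutes at room temperature. Streptavidin capture followed, with quantification by triplicate qPCR and Illumina sequencing. Catalytic enhancement is reported as median kA over the uncatalyzed rate, the low-activity peak of a bimodal Gaussian fit to the data.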

biotinyl-Trp-oxazolone = assay: self-aminoacylation, catalytic enhancement (BWO) (fold over background); higher = more active; k-Seq, kA / k0A0; sequences stand for … in GGGAAUGGAUCCACAUCUACGAAUUC…UUCACUGCAGACUUGACGAAGCUG
Procedure, shortened: as §1

biotinyl-Leu-oxazolone = assay: self-aminoacylation, catalytic enhancement (BLO) (fold over background); higher = more active; k-Seq, kA / k0A0; sequences stand for … in GGGAAUGGAUCCACAUCUACGAAUUC…UUCACUGCAGACUUGACGAAGCUG
Procedure, shortened: as §1

biotinyl-Phe-oxazolone = assay: self-aminoacylation, catalytic enhancement (BFO) (fold over background); higher = more active; k-Seq, kA / k0A0; sequences stand for … in GGGAAUGGAUCCACAUCUACGAAUUC…UUCACUGCAGACUUGACGAAGCUG
Procedure, shortened: as §1

biotinyl-Ile-oxazolone = assay: self-aminoacylation, catalytic enhancement (BIO) (fold over background); higher = more active; k-Seq, kA / k0A0; sequences stand for … in GGGAAUGGAUCCACAUCUACGAAUUC…UUCACUGCAGACUUGACGAAGCUG
Procedure, shortened: as §1

biotinyl-Val-oxazolone = assay: self-aminoacylation, catalytic enhancement (BVO) (fold over background); higher = more active; k-Seq, kA / k0A0; sequences stand for … in GGGAAUGGAUCCACAUCUACGAAUUC…UUCACUGCAGACUUGACGAAGCUG
Procedure, shortened: as §1

| Sequence | self-aminoacylation (biotinyl-Met-oxazolone) | self-aminoacylation (biotinyl-Trp-oxazolone) | self-aminoacylation (biotinyl-Leu-oxazolone) | self-aminoacylation (biotinyl-Phe-oxazolone) | self-aminoacylation (biotinyl-Ile-oxazolone) | self-aminoacylation (biotinyl-Val-oxazolone) |
| --- | --- | --- | --- | --- | --- | --- |
| AUUAGCCUGGUCAUCGAGUGG [Fam2.1 aminoacylation ribozyme variant] | 2.81 | 3.05 | 2.35 | 2.98 |  |  |
| AAUACCCUGGUCAUCGAGUGG [Fam2.1 aminoacylation ribozyme variant] | 2.49 | 3.39 | 2.81 | 7.18 |  |  |
| AUUCACCAAGGUCAUCGGGGG [Fam2.2 aminoacylation ribozyme variant] | 2.23 | 2.91 | 2.72 | 11.9 | 2.02 |  |
| AAGCUUGUUAAUAGUCGCAAG [Fam3.1 aminoacylation ribozyme variant] | 2.26 | 2.3 | 2.38 | 3.63 | 2.21 |  |
| AAUACCCUGUUCAUCGAGUGA [Fam2.1 aminoacylation ribozyme variant] | 3 | 4.5 | 3.46 | 9.83 |  | 2.14 |
| AUUACCCUGUUCAUCGAGUGU [Fam2.1 aminoacylation ribozyme variant] | 2.84 | 3.95 | 2.1 |  |  | 2.02 |
| CUUACCCUGGUCAUCGAGUGC [Fam2.1 aminoacylation ribozyme variant] | 2.91 | 3.03 | 3.18 | 4.77 |  |  |
| AUUACCCUGGUCUGCGAGUGA [Fam2.1 aminoacylation ribozyme variant] | 2.15 | 2.62 | 2.72 | 9.18 |  |  |
| AUUCACCUAGGUAACCGGGUG [Fam2.2 aminoacylation ribozyme variant] | 2.57 | 2.56 | 2.85 | 11 |  |  |
| AAGCUUGGUAAUAGUCGCAAG [Fam3.1 aminoacylation ribozyme variant] | 2.46 | 2.68 | 2.52 | 2.69 |  |  |
| AAGCUUGCUAAUAGCCGCAAG [Fam3.1 aminoacylation ribozyme variant] | 2.25 | 3.08 | 2.58 | 3.2 |  |  |
| CCACACUUCAAGCCAUCGGUU [Fam1B.1 aminoacylation ribozyme variant] |  | 2.06 |  | 2.81 |  | 2.18 |
| AUUCACCUAGCUGAUCGGGUG [Fam2.2 aminoacylation ribozyme variant] |  |  | 2.82 | 8.31 | 2.29 | 2.63 |
| AUUCACCUAGGUCAUCGCGUC [Fam2.2 aminoacylation ribozyme variant] | 2.3 | 2.85 |  | 9.82 |  | 2.15 |
| AAUUUUACUAAUAGUCGCAAG [Fam3.1 aminoacylation ribozyme variant] |  |  |  | 2.67 | 2.01 |  |
| AGUCACCUAGGUCAUCAGGUG [Fam2.2 aminoacylation ribozyme variant] |  |  | 2.1 | 8.84 |  | 2.09 |
| AAGUUUGCCAAUAGUCGCACG [Fam3.1 aminoacylation ribozyme variant] | 2.3 |  | 2.05 |  |  |  |
| ACUACCCUCGUCAUCGAGUGA [Fam2.1 aminoacylation ribozyme variant] | 2.71 | 2.14 | 3.13 | 4.34 |  | 2.32 |
| AUUACCCUGGUCGUCCAGUGA [Fam2.1 aminoacylation ribozyme variant] | 2.68 | 3.21 | 2.88 | 11.1 |  |  |

| Sequence | self-aminoacylation (biotinyl-Met-oxazolone) | self-aminoacylation (biotinyl-Trp-oxazolone) | self-aminoacylation (biotinyl-Leu-oxazolone) | self-aminoacylation (biotinyl-Phe-oxazolone) | self-aminoacylation (biotinyl-Ile-oxazolone) | self-aminoacylation (biotinyl-Val-oxazolone) |
| --- | --- | --- | --- | --- | --- | --- |
| AAGUUUGCUAAUAGUCGCGUG [Fam3.1 aminoacylation ribozyme variant] | 2.33 | 2.15 | 2.15 | 8.13 |  |  |
| AUUACACUGGUCAUCAAGUGA [Fam2.1 aminoacylation ribozyme variant] | 2.7 | 3.18 | 2.31 | 3.52 |  |  |
| AUUACCCUCGUCAUGGAGUGA [Fam2.1 aminoacylation ribozyme variant] | 2.81 | 2.5 | 3.02 | 8.82 |  |  |
| AUUCUCCUAGGUCAUAGGGUG [Fam2.2 aminoacylation ribozyme variant] | 2.33 |  | 2.94 | 8.67 |  |  |
| AUUCACCUAGAUAAUCGGGUG [Fam2.2 aminoacylation ribozyme variant] | 2.25 |  | 2.79 | 12.9 |  |  |
| CCCCAUUUCAAGCAAUCGGUC [Fam1B.1 aminoacylation ribozyme variant] |  | 7.54 |  | 9.72 | 2.26 | 2.07 |
| AAUACCCUGGUCCUCGAGUGA [Fam2.1 aminoacylation ribozyme variant] | 3.08 | 3.22 | 3.33 | 9.54 |  |  |
| AACUUUGCUCAUAGUCGCAAG [Fam3.1 aminoacylation ribozyme variant] | 2 | 2.34 | 2.47 | 10.8 | 2.01 |  |
| AUACACCUAGGUCAUCGAGUG [Fam2.2 aminoacylation ribozyme variant] | 2.4 | 2.4 | 2.87 | 2.81 |  |  |
| CCACACUCCAAGCAUUCGGUC [Fam1B.1 aminoacylation ribozyme variant] |  |  |  |  |  | 2.83 |
| CUACUUCAAACAAUCGGCCGG [Fam1A.1 aminoacylation ribozyme variant] |  |  |  | 2.44 | 2.09 |  |
| AUUACUCUGGUCAUCAAGUGA [Fam2.1 aminoacylation ribozyme variant] | 2.47 | 3.07 | 2.29 | 4.38 |  |  |
| CUUACCCUGGUCAUCGAGGGA [Fam2.1 aminoacylation ribozyme variant] |  |  |  |  |  | 2.04 |
| AUUCACCUCGGUCAUCGAGUG [Fam2.2 aminoacylation ribozyme variant] | 2.33 | 2.51 | 2.88 | 13.1 |  |  |
| CCACACUUCAAGCAAUGGGCC [Fam1B.1 aminoacylation ribozyme variant] |  |  |  |  |  | 2.81 |
| AUUCACCCAGGUCAUCGGGUU [Fam2.2 aminoacylation ribozyme variant] | 2.16 |  | 2.65 | 6.46 |  | 2.14 |
| CCGCUUCAAACAAUCGGUCUG [Fam1A.1 aminoacylation ribozyme variant] | 2.68 | 95.9 | 4.82 | 257 |  | 2.4 |
| AGGUUUGCCAAUAGUCGCAAG [Fam3.1 aminoacylation ribozyme variant] | 2.31 | 3.7 | 2.31 | 9.52 | 2.1 |  |
| CUUACCCUGCUCAUCGAGUGA [Fam2.1 aminoacylation ribozyme variant] | 2.57 | 2.2 | 2.19 | 2.86 |  |  |

| Sequence | self-aminoacylation (biotinyl-Met-oxazolone) | self-aminoacylation (biotinyl-Trp-oxazolone) | self-aminoacylation (biotinyl-Leu-oxazolone) | self-aminoacylation (biotinyl-Phe-oxazolone) | self-aminoacylation (biotinyl-Ile-oxazolone) | self-aminoacylation (biotinyl-Val-oxazolone) |
| --- | --- | --- | --- | --- | --- | --- |
| AAGUUCGCUAAUAGUCGCAAU [Fam3.1 aminoacylation ribozyme variant] | 2.1 | 2.44 |  | 3.19 |  | 2.03 |
| GAGUUUGCUAAUAGUCGCAAU [Fam3.1 aminoacylation ribozyme variant] |  | 3.41 |  | 2.19 | 2.21 |  |
| CCACACUUGAAGCAAUCGGCC [Fam1B.1 aminoacylation ribozyme variant] |  | 2.29 | 2.24 |  |  | 3.19 |
| CCACACUGCAAGCAAUCGGGC [Fam1B.1 aminoacylation ribozyme variant] |  | 3 |  |  |  | 2.56 |
| UUUACCCUGGUCAUCGAGGGA [Fam2.1 aminoacylation ribozyme variant] |  | 2.85 |  | 3.55 |  | 2.19 |
| AAUUUAGCUAAUAGUCGCAAG [Fam3.1 aminoacylation ribozyme variant] |  |  |  | 2.58 | 2.02 |  |
| CCACAACUCAAGCAAUCGGUC [Fam1B.1 aminoacylation ribozyme variant] |  |  |  | 2.62 |  | 2.23 |
| AUAACCCUGGUCAUCGUGUGA [Fam2.1 aminoacylation ribozyme variant] | 3.15 | 3.32 | 3.53 | 15.2 |  |  |
| AUUACCCAGGUCAUCGUGUGA [Fam2.1 aminoacylation ribozyme variant] | 3.58 | 4.27 | 3.86 | 21.4 |  |  |
| AAGUUCGCUAAUAGUCGCAAA [Fam3.1 aminoacylation ribozyme variant] | 2.01 | 2.76 | 2.63 | 4.42 | 2.49 |  |
| CCCCACUUCAAGCAGUCGGUC [Fam1B.1 aminoacylation ribozyme variant] |  | 3.29 | 2.2 | 3.77 |  | 2.23 |
| CCCCACUCCAAGCAAUCGGUC [Fam1B.1 aminoacylation ribozyme variant] |  | 6.53 |  | 8.62 |  | 2.19 |
| AUUCACCUAGGACAUCGGGGG [Fam2.2 aminoacylation ribozyme variant] | 3.13 |  | 2.63 | 10.4 |  | 2.18 |
| CCACACGUCAAGCAAUCCGUC [Fam1B.1 aminoacylation ribozyme variant] |  | 2.45 |  |  |  | 2.22 |
| AUUAACCUGGCCAUCGAGUGA [Fam2.1 aminoacylation ribozyme variant] | 2.01 | 2.78 | 2.11 |  |  |  |
| CCGCACCUCAAGCAAUCGGUC [Fam1B.1 aminoacylation ribozyme variant] |  | 5.62 |  | 6.19 |  | 2.16 |
| AUUCACCUAAUUCAUCGGGUG [Fam2.2 aminoacylation ribozyme variant] | 2.68 | 3.32 | 3.05 | 15.5 |  |  |
| AUUACCCUGGUCAUCGAGGGG [Fam2.1 aminoacylation ribozyme variant] | 2.75 | 2.23 | 2.42 | 2.86 |  |  |
| AUUCACCGAGGUCAUCGGUUG [Fam2.2 aminoacylation ribozyme variant] | 3.52 | 2.6 | 4.89 | 29 |  |  |

From the supplement of paper PMC9233669
